Molecular target: T1, A*0201 (biotinylated pMHC monomer from UV-induced MHC ligand exchange) (human, biotin)
T1 construct: pMHC complexes for aAPC loading and multimer read-out
Experiment: pMHC complex from UV-induced MHC ligand exchange, used as control
Protocol: Generation of pMHC/anti-CD28 coated beads, T-cell stimulations and readout was performed in a highly defined in vitro system using four different pMHC molecules per stimulation condition and 8 different pMHC molecules per readout condition. […] In order to determine the amount of pMHC monomer obtained by exchange we performed streptavidin-based sandwich ELISAs according to (Rodenko et al., 2006). The purified co-stimulatory mouse IgG2a anti human CD28 Ab 9.3 (Jung et al., 1987) was chemically biotinylated using Sulfo-N-hydroxysuccinimidobiotin as recommended by the manufacturer (Perbio, Bonn, Germany). Beads used were 5.6 μm diameter streptavidin coated polystyrene particles (Bangs Laboratories, Illinois, USA).
Half of the medium was then exchanged by fresh TCM supplemented with 80 U/ml IL-2 and incubating was continued for 3-4 days at 37° C. […] Finally, multimeric analyses were performed by staining the cells with Live/dead near IR dye (Invitrogen, Karlsruhe, Germany), CD8-FITC antibody clone SK1 (BD, Heidelberg, Germany) and fluorescent pMHC multimers. For analysis, a BD LSRII SORP cytometer equipped with appropriate lasers and filters was used. Peptide specific cells were calculated as percentage of total CD8+ cells. Evaluation of multimeric analysis was done using the FlowJo software (Tree Star, Oregon, USA).

binding result: binds
Binder: YLLPAIVHI (control for low immunogenic stimulation) [DDX5-001]

Source: patent publication US20150125477A1 (IMMATICS BIOTECHNOLOGIES, published 2015)
